In paper PMC3438196 one finds percent of parent data, which are given here for 20 molecules.

The labels stand for the following.
B1: Apobec3G-GFP MAPPIT bait (pCEL-Apobec3G-GFP), Q9HC16 H81L (protein)
chain: MKPHFRNTVERMYRDTFSYNFYNRPILSRRNTVWLCYEVKTKGPSRPPLDAKIFRGQVYSELKYHPEMRFFHWFSKWRKLLRDQEYEVTWYISWSPCTKCTRDMATFLAEDPKVTLTIFVARLYYFWDPDYQEALRSLCQKRDGPRATMKIMNYDEFQHCWSKFVYSQRELFEPWNNLPKYYILLHIMLGEILRHSMDPPTFTFNFNNEPWVRGRHETYLCYEVERMHNDTWVLLNQRRGFLCNQAPHKHGFLEGRHAELCFLDVIPFWKLDLDQDYRVTCFTSWSPCFSCAQEMAKFISKNKHVSLCIFTARIYDDQGRCQEGLRTLAEAGAKISIMTYSEFKHCWDTFVDHQGCPFQPWDGLDEHSQDLSGRLRAILQNQEN
B2: Apobec3G-GFP MAPPIT bait (pCEL-Apobec3G-GFP), Q9HC16 R102G (protein)
chain: B1 chain with L81H, R102G
B3: Apobec3G-GFP MAPPIT bait (pCEL-Apobec3G-GFP), Q9HC16 K79M (protein)
chain: B1 chain with K79M, L81H
B4: Apobec3G-GFP MAPPIT bait (pCEL-Apobec3G-GFP), Q9HC16 R78W (protein)
chain: B1 chain with R78W, L81H
B5: Apobec3G-GFP MAPPIT bait (pCEL-Apobec3G-GFP), Q9HC16 R30L (protein)
chain: B1 chain with R30L, L81H
B6: Apobec3G-GFP MAPPIT bait (pCEL-Apobec3G-GFP), Q9HC16 Y59N (protein)
chain: B1 chain with Y59N, L81H
B7: Apobec3G-GFP MAPPIT bait (pCEL-Apobec3G-GFP), Q9HC16 V265M (protein)
chain: B1 chain with L81H, V265M
B8: Apobec3G-GFP MAPPIT bait (pCEL-Apobec3G-GFP), Q9HC16 R24G (protein)
chain: B1 chain with R24G, L81H
B9: Apobec3G-GFP MAPPIT bait (pCEL-Apobec3G-GFP), Q9HC16 E191V (protein)
chain: B1 chain with L81H, E191V
B10: Apobec3G-GFP MAPPIT bait (pCEL-Apobec3G-GFP), Q9HC16 W175R (protein)
chain: B1 chain with L81H, W175R
B11: Apobec3G-GFP MAPPIT bait (pCEL-Apobec3G-GFP), Q9HC16 F157I (protein)
chain: B1 chain with L81H, F157I
B12: Apobec3G-GFP MAPPIT bait (pCEL-Apobec3G-GFP), Q9HC16 L27R (protein)
chain: B1 chain with L27R, L81H
B13: Apobec3G-GFP MAPPIT bait (pCEL-Apobec3G-GFP), Q9HC16 K270E (protein)
chain: B1 chain with L81H, K270E
B14: Apobec3G-GFP MAPPIT bait (pCEL-Apobec3G-GFP), Q9HC16 R122C (protein)
chain: B1 chain with L81H, R122C
B15: Apobec3G-GFP MAPPIT bait (pCEL-Apobec3G-GFP), Q9HC16 Y222N (protein)
chain: B1 chain with L81H, Y222N
B16: Apobec3G-GFP MAPPIT bait (pCEL-Apobec3G-GFP), Q9HC16 D130Y (protein)
chain: B1 chain with L81H, D130Y
B17: Apobec3G-GFP MAPPIT bait (pCEL-Apobec3G-GFP), Q9HC16 R238C (protein)
chain: B1 chain with L81H, R238C
B18: Apobec3G-GFP MAPPIT bait (pCEL-Apobec3G-GFP), Q9HC16 W94R (protein)
chain: B1 chain with L81H, W94R
B19: Apobec3G-GFP MAPPIT bait (pCEL-Apobec3G-GFP), Q9HC16 W127R (protein)
chain: B1 chain with L81H, W127R
B20: Apobec3G-GFP MAPPIT bait (pCEL-Apobec3G-GFP), Q9HC16 R136S (protein)
chain: B1 chain with L81H, R136S

Positions count from the first letter of the chain named. Names and notes keep the numbering of the source.

For the first assay, the target named is T1, codon optimized Vif SLQ144-146AAA MAPPIT prey (pMG2-VifoptSLQ), P12504. The assay is described as follows: MAPPIT. The conditions noted are these: chain shown with the change.
As to B1, the percent of parent is 53 % of WT. In the case of B2, the percent of parent is 44 % of WT.

Consider B3, for which the percent of parent is 56 % of WT. On to B4, for which the percent of parent was 16 % of WT.

As for B5, the percent of parent was 21 % of WT.

In a further assay the target is T1, codon optimized Vif SLQ144-146AAA …. The assay is described as follows: MAPPIT. The settings on record: chain shown with the change. The source holds these as a separate data set.
As for B6, the percent of parent was 18 % of WT. Still for that read-out and setting: then B7, with 92 % of WT; and B8, with 32 % of WT.

As for B9, the percent of parent is 41 % of WT. The same measure, in the same setting: next, B2: 44 % of WT; B10: 20 % of WT. Same read-out and setting: then B11, with 39 % of WT; and B12, with 26 % of WT.

Regarding B13, the percent of parent was 58 % of WT. B14: the percent of parent was 16 % of WT. Regarding B15, the percent of parent was 12 % of WT.

Regarding B16, the percent of parent is 43 % of WT.

For the molecule B17, the percent of parent was 55 % of WT. With B18, the percent of parent was 27 % of WT.

For the molecule B19, the percent of parent is 16 % of WT.

Consider B20, for which the percent of parent was 53 % of WT. The same measure, in the same setting: next, B5: 21 % of WT.
